Results: US20260217797A1 (Takeda / Millennium, published 2026)
Positions count from the first letter of the chain named. Read-outs that look alike come from different tables or passages of the source.

T1: MERS-CoV [change] (MERS-CoV, UniProt K9N5Q8 18-725)
T1 sequence: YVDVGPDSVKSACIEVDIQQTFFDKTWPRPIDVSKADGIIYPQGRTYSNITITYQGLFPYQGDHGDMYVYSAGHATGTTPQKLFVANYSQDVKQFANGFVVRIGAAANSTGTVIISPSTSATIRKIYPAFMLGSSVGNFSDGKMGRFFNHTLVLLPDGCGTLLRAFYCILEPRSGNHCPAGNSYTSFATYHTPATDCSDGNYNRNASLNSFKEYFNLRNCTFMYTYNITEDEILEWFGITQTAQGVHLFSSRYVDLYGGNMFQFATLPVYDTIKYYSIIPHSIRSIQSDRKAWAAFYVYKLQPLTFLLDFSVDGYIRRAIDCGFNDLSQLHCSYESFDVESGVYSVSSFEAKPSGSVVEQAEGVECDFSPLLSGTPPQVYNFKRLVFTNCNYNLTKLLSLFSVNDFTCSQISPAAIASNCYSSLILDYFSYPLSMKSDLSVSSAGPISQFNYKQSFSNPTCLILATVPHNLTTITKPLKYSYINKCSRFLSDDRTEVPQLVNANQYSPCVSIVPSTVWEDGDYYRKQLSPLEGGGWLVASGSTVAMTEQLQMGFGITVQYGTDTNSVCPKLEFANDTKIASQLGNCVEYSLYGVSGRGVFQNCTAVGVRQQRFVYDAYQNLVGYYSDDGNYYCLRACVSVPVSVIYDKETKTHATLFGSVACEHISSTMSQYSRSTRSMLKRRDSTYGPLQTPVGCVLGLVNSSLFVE

B1: A-6 (antibody, V domains shown)
VH: QVQLVQSGGGVVQPGRSLRLSCAASGFTFSNFAMHWVRQAPGKGLEWVAVILYDGINKYYADSVKGRFTISRGNSKNTLSLQMNSLRAEDTAVYYCARAQNYYDRSGTLQLDAFDIWGQGTMVTVSS
VL: DIVMTQSPSSLSASVGDRVTITCRASQGIRNDLGWYQQKPGKAPKLLIYAASSLQSGVPSRFSGSGSGTDFTLTISSLQPEDFATYYCLQDYNYPLTFGGGTKVEIK
B2: A-18 (antibody, V domains shown)
VH: EVQLLESGGGLVQPGGSLRLSCAASGFTFSRYWMHWVRQAPGKGLVWVSRINSDGSSTTYADSVKGRFTISRDNAKNTLYLQMNSLRAEDTAVYYCARELYYYDSRGAEEGEGWFDPWGQGTLVTVSS
VL: QSVLTQPPSVSGAPGQRVTISCTGISSNIGAGYDVHWYQQLPGTAPKLLIYGNSNRPSGVPDRFSASKSGTSAPLAITGLQAEDEADYYCQSSDRSLSGSVFGTGTKLTVL
B3: A-16 (antibody, V domains shown)
VH: QVQLVESGGGLVQPGRSLRLSCAASGFTFDDYAMHWVRQAPGKGLEWVSGISWNSGTIGYADSVKGRFIISRDNAKNSLYLQMNSLRGEDMALYYCGKDRKREDPSLGGMDVWGQGTTVTVSS
VL: SYELTQPPSVSVAPGQTARITCGGNNIGSKSVHWYQQKPGQAPVLVVYDDTDRPSGIPERFSGSNSGNTATLTISRVEAGDEADYYCQVWDSSSDHYVFGTGTKLTVL
B4: A-9 (antibody, V domains shown)
VH: EVQLVESGGGLVKPGRSLRLSCAASGFTFADYAMSWFRQAPGKGLEWVGFIRSKPYGGTTEYAASVKGRFTISRDDSKSIAYLQMNSLKTEDTAVYYCSRDPWYCSGGDCYAVTGSWFDPWGQGTLVTVSS
VL: DIVLTQSPSSLSASVGDRVTITCQASQDIKKYLNWYQQKPGKAPKLLIYDVSNLETGVPSRFSGSGSGTDFTFTISSLQPEDVAIYYCQQYDNLPQTFGQGTKVDIK
B5: A-24.1 Fab (Fab, V domains shown)
VH: B4 VH with A33T, K54E
VL: B4 VL with V3Q, L4M, D105E
B6: A-24.3 Fab (Fab, V domains shown)
VH: B4 VH with A33T, K54E
VL: B4 VL with V3Q, L4M, Q27R, N93Q, D105E, K107E
B7: A-24 Fab (Fab, V domains shown)
VH: B4 VH
VL: B4 VL with V3Q, L4M, D105E
B8: A-22 (antibody, V domains shown)
VH: not shown
VL: EIVLTQSPGTLSLSPGERATLSCRASQTVRSDLAWYQQKPGQAPRLLIYGASTRATDISDRFSGSGSGTEFTLTISSLQSEDFAVYYCQQYYEWPPHSDSFGGGTKVEIK

How the values were obtained:
[1] = target: T2, SARS-CoV-2 wild type spike protein (on reporter virus particles) (SARS-CoV-2, UniProt P0DTC2 14-1273); experiment: cell-based or functional assay
[2] = target: T2, SARS-CoV-2 wild type spike protein (on …); experiment: cell-based or functional assay; remark: listed apart in the source
SARS-CoV-2 WT RBD = SARS-CoV-2 WT RBD (SARS-CoV-2, UniProt P0DTC2 319-541); experiment: Octet BLI single point, monovalent
[3] = target: T2, SARS-CoV-2 wild type spike protein (on …); experiment: cell-based or functional assay; remark: listed apart in the source
[4] = target: Bat coronavirus WIV16 spike protein (Bat coronavirus WIV16); experiment: cell-based or functional assay
SARS-CoV-1 spike protein = SARS-CoV-1 spike protein (SARS-CoV-1, UniProt P59594 14-1255); experiment: cell-based or functional assay
[5] = target: T2, SARS-CoV-2 wild type spike protein (on …); experiment: cell-based or functional assay; remark: listed apart in the source
[6] = target: T2, SARS-CoV-2 wild type spike protein (on …); experiment: cell-based or functional assay; remark: listed apart in the source
SARS-CoV-2 Spike S1-His [7] = target: T3, SARS-CoV-2 Spike S1-His (SARS-CoV-2, UniProt P0DTC2 16-685); experiment: Octet BLI, IgG, monovalent
SARS-CoV1 Spike [change] [8] = target: T4, SARS-CoV1 Spike [change] (SARS-CoV-1, UniProt P59594 14-667); experiment: Octet BLI, IgG, monovalent
MERS-CoV [change] = target: T1, MERS-CoV [change]; experiment: Octet BLI, IgG, monovalent
[9] = target: T2, SARS-CoV-2 wild type spike protein (on …); experiment: cell-based or functional assay; remark: listed apart in the source
SARS-CoV-2 S Trimer = SARS-CoV-2 S Trimer (SARS-CoV-2, UniProt P0DTC2 16-1213); experiment: Octet BLI, IgG, avid
SARS-CoV-2 Spike S1-His [10] = target: T3, SARS-CoV-2 Spike S1-His; experiment: Octet BLI, Fab, monovalent
[11] = target: T2, SARS-CoV-2 wild type spike protein (on …); experiment: cell-based or functional assay; remark: listed apart in the source
SARS-CoV-2 Spike S1-His [12] = target: T3, SARS-CoV-2 Spike S1-His; experiment: Octet BLI, IgG, monovalent; remark: listed apart in the source
SARS-CoV1 Spike [change] [13] = target: T4, SARS-CoV1 Spike [change]; experiment: Octet BLI, IgG, monovalent; remark: listed apart in the source
[14] = target: T2, SARS-CoV-2 wild type spike protein (on …); experiment: cell-based or functional assay; remark: listed apart in the source

Binder	SARS2 IC50 [1] [nM]	PsV IC50, Test 1 [2] [nM]	PsV IC50, Test 2 [2] [nM]	Kd (SARS-CoV-2 WT RBD) [nM]	PsV Neut Assay IC50 [6] [nM]	Kd (SARS-CoV-2 Spike S1-His [7]) [nM]	binding result (MERS-CoV [change])	PsV neutralization IC50 [9] [µg/mL]	PsV neutralization IC90 [9] [µg/mL]	Kd (SARS-CoV-2 S Trimer) [nM]	Kd (SARS-CoV-2 Spike S1-His [10]) [nM]	also measured
B1	0.023	0.12	2.45	1.18	5.85	3.71	no binding	0.173	2.03	1.35		PsV neutralization IC50 [3]: 0.015 µg/mL; PsV neutralization IC90 [3]: 0.085 µg/mL; PsV neutralization IC50 [4]: 0.074 µg/mL; PsV neutralization IC90 [4]: 16.3 µg/mL; PsV neutralization IC50 (SARS-CoV-1 spike protein): 1.01 µg/mL; PSV IC50 [5]: 0.878 µg/mL; Kd (SARS-CoV1 Spike [change] [8]): 17.2 nM
B2	5.9	0.14	2.78	0.527	9.88	1.09	no binding	0.303	1.82	1.69		PsV neutralization IC50 [3]: 0.076 µg/mL; PsV neutralization IC90 [3]: 1.38 µg/mL; PsV neutralization IC50 [4]: 0.045 µg/mL; PsV neutralization IC90 [4]: 0.324 µg/mL; PsV neutralization IC50 (SARS-CoV-1 spike protein): 0.043 µg/mL; PsV neutralization IC90 (SARS-CoV-1 spike protein): 0.046 µg/mL; Kd (SARS-CoV1 Spike [change] [8]): 7.43 nM
B3	0.61	0.28	0.54	2.09	1.24	4.85	no binding	0.057	0.399	1.15		PSV IC50 [5]: 0.186 µg/mL; binding result (SARS-CoV1 Spike [change] [8]): no binding
B4	0.03	0.03	0.04		0.208	5.89	no binding	0.011	0.164	1		binding result (SARS-CoV1 Spike [change] [8]): no binding
B5											0.539	
B6											0.244	
B7											2.97	
B8	0.06			0.325				0.749	3.55			WT PsV IC50 [11]: 28.8 nM; Kd (SARS-CoV-2 Spike S1-His [12]): 0.244 nM; Kd (SARS-CoV1 Spike [change] [13]): 4.51 nM; SARS2 PsV IC50 [14]: 5 nM
